Data taken from patent US20030207791A1, “Materials and methods relating to the treatment of leukaemias” (priority 2000, published 2003).

Key:
[1] = test system: murine hematopoietic progenitors (lin-); test: In vitro differentiation of murine hematopoietic progenitor cells transduced with retroviral constructs; format: cell-based; conditions: for effect on differentiation of transduced progenitors: compared with control cells
Protocol: FIG. 5. A heterologous oligomerization domain activates the transforming potential of RAR. (A-B) p53-RAR form oligomers. (A) Nuclear extracts from COS-1 cells transfected with expression vectors for p53-RAR or RAR were incubated with tritiated RA (10 nM), fractionated and analysed as described in FIG. 3A. Note that the low MW peak of RA-binding capacity (coinciding with RAR) in p53-RAR cells derives from expression of wild type RAR, starting from its own ATG-conserved in the p53-RAR expression vector (see below)-. (B) Fractions from gel filtration of in vitro translated, ^35-S labelled p53-RAR were analysed by SDS-PAGE, followed by autoradiography. Note that two products are generated in the reaction: full-length p53-RAR, fractionating in oligomeric complexes, and RAR, starting from the internal ATG site of RAR and fractionating as a monomer. (C-D) Effects of RAR chimeric proteins on differentiation of murine hematopoietic progenitors. Lin-cells were transduced with the indicated retroviral vectors and then sorted by FACS on the basis of their GFP positivity. In the case of ΔCC-PML-RAR, GFP+ cells were sorted in GFP^high or GFP^low expressors. After sorting, cells were either plated in differentiation medium in the absence or in the presence of RA (3 nM or 1 μM) (C), or analysed by Western blot (D). C, control, P-R, PML-RAR, ΔCC-P-R, ΔCC-PML-RAR, G-PR, GFP-PML-RAR, G-ΔCCPR, GFP-ΔCC-PML-RAR, G-p53R, GFP-p53-RAR. As described, RA delays myeloid differentiation of control cells, leading to a maximum 20-30% reduction in the number of Mac1 + cells (Purton et al., 1999). This effect is counter-acted by expression of PML-RAR and by high levels of ΔCC-PML-RAR. […]
The capacity of p53-RAR to block differentiation was evaluated using primary hematopoietic precursors purified from murine bone marrow on the basis of the absence of surface differentiation antigens (lin-see methods). […] After 8-10 days, colonies were pooled and analysed for the expression of myeloid differentiation markers (Mac-1 and GR-1). […]

[2] = test system: U937 cells expressing PML-RAR under the control of an inducible promoter; test: Differentiation (CD14) of U937 cells with inducible PML-RAR treated with vitamin D and TGFβ; format: cell-based; conditions: PML-RAR induced, control infection (GFP alone), vitamin D and TGFβ
From the text: The cells were either uninduced (ctr column), or induced to express PML-RAR (PML-RAR column). Cells were transduced with retroviral vectors encoding the coiled coil of PML (RBCC) and GFP as a marker, or with retroviral vectors encoding GFP alone as a control (control). […] In cells expressing the coiled coil of PML (gated in the cytofluorimetric analysis based on the positivity for the GFP marker), PML-RAR was unable to block efficiently differentiation (from 90% to 70%). Levels of expression of PML-RAR were unchanged by expressing the coiled coil region of PML.
RAR oligomerization through the coiled coil region of PML is required for its leukemogenic activity, and deletion of the PML coiled coil is sufficient to lead to loss of oncogenic potential (Minucci et al., 2000). Small molecule compounds able to disrupt PML-RAR oligomers would therefore be able to revert the leukemic phenotype.

| Molecule | differentiation block ([1]; Mac-1, 8-10 days in methylcellulose) | effect on differentiation of transduced progenitors [1] | differentiated, CD14+ cells [2] |
| --- | --- | --- | --- |
| PML-RAR: leukaemia-associated chimeric transcription factor, fusion of PML and RAR (protein) MEPAPARSPRPQQDPARPQEPTMPPPETPSEGRQPSPSPSPTERAPASEEEFQFLRCQQCQAEAKCPKLLPCLHTLCSGCLEASGMQCPICQAPWPLGADTPALDNVFFESLQRRLSVYRQIVDAQAVCTRCKESADFWCFECEQLLCAKCFEAHQWFLKHEARPLAELRNQSVREFLDGTRKTNNIFCSNPNHRTPTLTSIYCRGCSKPLCCSCALLDSSHSELKCDISAEIQQRQEELDAMTQALQEQDSAFGAVHAQMHAAVGQLGRARAETEELIRERVRQVVAHVRAQERELLEAVDARYQRDYEEMASRLGRLDAVLQRIRTGSALVQRMKCYASDQEVLDMHGFLRQALCRLRQEEPQSLQAAVRTDGFDEFKVRLQDLSSCITQGKDAAVSKKASPEAASTPRDPIDVDLPEEAERVKAQVQALGLAEAQPMAVVQSVPGAHPVPVYAFSIKGPSYGEDVSNTTTAQKRKCSQTQCPRKVIKMESEEGKEARLARSSPEQPRPSTSKAVSPPHLDGPPSPRSPVIGSEVFLPNSNHVASGAGEAIETQSSSSEEIVPSPPSPPPLPRIYKPCFVCQDKSSGYHYGVSACEGCKGFFRRSIQKNMVYTCHRDKNCIINKVTRNRCQYCRLQKCFEVGMSKESVRNDRNKKKKEVPKPECSESYTLTPEVGELIEKVRKAHQETFPALCQLGKYTTNNSSEQRVSLDIDLWDKFSELSTKCIIKTVEFAKQLPGFTTLTIADQITLLKAACLDILILRICTRYTPEQDTMTFSDGLTLNRTQMHNAGFGPLTDLVFAFANQLLPLEMDDAETGLLSAICLICGDRQDLEQPDRVDMLQEPLLEALKVYVRKRRPSRPHMFPKMLMKITDLRSISAKGAERVITLKMEIPGSMPPLIQEMLENSEGLDTLSGQPGGGGRDGGGLAPPPGSCSPSLSPSSNRSSPATHSP | about 50% | strong reduction in their capacity to differentiate | about 30% |
| p53-RAR: RAR fused C-terminally to the tetramerization domain present in p53 (protein) GEYFTLQIRGRERFEMFRELNEALELKDAQAGMASNSSSCPTPGGGHLNGYPVPPYAFFFPPMLGGLSPPGALTTLQHQLPVSGYSTPSPATIETQSSSSEEIVPSPPSPPPLPRIYKPCFVCQDKSSGYHYGVSACEGCKGFFRRSIQKNMVYTCHRDKNCIINKVTRNRCQYCRLQKCFEVGMSKESVRNDRNKKKKEVPKPECSESYTLTPEVGELIEKVRKAHQETFPALCQLGKYTTNNSSEQRVSLDIDLWDKFSELSTKCIIKTVEFAKQLPGFTTLTIADQITLLKAACLDILILRICTRYTPEQDTMTFSDGLTLNRTQMHNAGFGPLTDLVFAFANQLLPLEMDDAETGLLSAICLICGDRQDLEQPDRVDMLQEPLLEALKVYVRKRRPSRPHMFPKMLMKITDLRSISAKGAERVITLKMEIPGSMPPLIQEMLENSEGLDTLSGQPGGGGRDGGGLAPPPGSCSPSLSPSSNRSSPATHSP | – | strong decrease in the number of Mac1+ and GR1+ cells | – |
